Values quoted from earlier work as cited in PMC3121775.

Biological target: Harakiri BH3 peptide BH3 (Homo sapiens) (UniProt O00198)
Assay: fluorescence

Chain of Bcl-xL (Q07817 whole entry): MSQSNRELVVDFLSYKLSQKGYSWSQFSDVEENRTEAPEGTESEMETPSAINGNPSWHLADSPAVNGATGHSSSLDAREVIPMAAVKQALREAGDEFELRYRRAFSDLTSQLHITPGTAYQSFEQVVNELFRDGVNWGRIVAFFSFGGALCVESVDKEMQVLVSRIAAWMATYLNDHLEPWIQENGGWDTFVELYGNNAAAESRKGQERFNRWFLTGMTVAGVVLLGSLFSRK

Bcl-xL (from UniProt Q07817)
Kd: 92 nM
